In article PMC4780118, “Mechanisms involved in xyloglucan catabolism by the cellulosome-producing bacterium Ruminiclostridium cellulolyticum” (Scientific Reports, 2016):

Assays:
SBP2458 = target: T1, SBP2458 (Ruminiclostridium cellulolyticum, UniProt B8I622); test: isothermal titration calorimetry; type: binding; details: 150 mM NaCl, 25 mM HEPES pH 7.0, 20 °C; single-site model
T1 construct: gene Ccel_2458

purified protein [1] = substrate: O=[N+]([O-])c1ccc(O[C@@H]2O[C@H](CO)[C@H](O)[C@H](O)[C@H]2O)cc1; test: purified protein; details: assay as in ref. 19
pNP release kinetics = substrate: O=[N+]([O-])c1ccc(O[C@H]2OC[C@@H](O)[C@H](O)[C@H]2O)cc1; test: pNP release kinetics; type: biochemical, Ruminiclostridium cellulolyticum; details: assay as in ref. 19
purified protein [2] = substrate: O=[N+]([O-])c1ccc(O[C@@H]2O[C@H](CO)[C@@H](O)[C@H](O)[C@H]2O)cc1; test: purified protein; details: assay as in ref. 19

T1 sequence (B8I622 entry or part of it): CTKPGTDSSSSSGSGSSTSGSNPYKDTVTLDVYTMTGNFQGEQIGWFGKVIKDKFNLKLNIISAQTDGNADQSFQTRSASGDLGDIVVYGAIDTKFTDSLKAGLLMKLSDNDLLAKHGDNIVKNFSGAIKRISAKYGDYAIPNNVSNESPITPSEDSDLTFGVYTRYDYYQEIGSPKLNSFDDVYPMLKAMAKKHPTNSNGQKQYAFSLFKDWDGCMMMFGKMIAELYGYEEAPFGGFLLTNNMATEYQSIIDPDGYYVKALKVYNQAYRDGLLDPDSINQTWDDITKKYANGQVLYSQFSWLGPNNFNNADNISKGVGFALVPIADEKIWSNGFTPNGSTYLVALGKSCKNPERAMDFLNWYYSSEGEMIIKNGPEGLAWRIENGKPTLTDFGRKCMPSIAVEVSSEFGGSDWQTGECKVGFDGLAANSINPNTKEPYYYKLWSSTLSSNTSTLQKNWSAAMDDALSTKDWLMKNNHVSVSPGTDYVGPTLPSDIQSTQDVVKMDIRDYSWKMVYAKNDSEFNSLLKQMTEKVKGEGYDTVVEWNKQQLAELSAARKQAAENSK

For OC[C@H]1OC(O)[C@H](O)[C@@H](O)[C@@H]1O[C@@H]1O[C@H](CO[C@H]2OC[C@@H](O)[C@H](O)[C@H]2O)[C@@H](O[C@@H]2O[C@H](CO[C@H]3OC[C@@H](O)[C@H](O)[C@H]3O)[C@@H](O[C@@H]3O[C@H](CO[C@H]4OC[C@@H](O)[C@H](O)[C@H]4O)[C@@H](O)[C@H](O)[C@H]3O)[C@H](O)[C@H]2O)[C@H](O)[C@H]1O (stereo partly shown) [XXXG], the Kd (SBP2458) was 3.65 ± 1.1 nM.

B1: Gal42A (Ruminiclostridium cellulolyticum H10) (protein)
chain: MDKYMPIGMNFPHILHGGDYNPDQWLKAPKILDEDFRLMKLAHCNVMTIGIFSWMALEPEEGKFDFSWLDEIMDKLSKNEMTAILATPSGAKPSWMSQKYPEILRTQADRLKDFHGGRHNHCLTSPIYRKKVSQINRLLAERYARHPALILWHISNEYSGECHCPLCQEAFRSFLMKKYEGDLERLNHEWWTGFWAHRYTDWSQIESPSPRGEHETHGLILDWKRFVSHQTIDFLKNEIKPLRELTPEISVTTNLMGTFPGLEYRELSKEIDVVSWDNYPTWHTSEQPDWKIGIRTSFVHDINRSLKQGKPFMMMESTPSTVNWQKVNKLKRPGMHMLSSLQAVAHGSDTVQYFQWRKSRGSFEKFHGAVVDHVGHENTRVFREVAQVGQVLEKLDEVVGTTVHPKVAIIFDWENRWAMEEAQALARDRIKYEETCVAHYTAFWKRGVSVDIIGARDNLSQYKLVIAPMLYLTHPGVGERIETFVNEGGTFVATYWSGIVNENDLCHLGGFPGPLRAVTGIWSEEIDTMHPDENNSLILSDNSLGLSGTYRVQDFCDLVHAESAEVLARYGEEFYAGRPALTVNRFGKGNAYYMAARTGEDFLEDFYNALMKKLTLSRTLDVELPCGVTSQLRTDGQNRYIFLMNFNHEKQDIQLTKGLTDMFTGEIRQGMLELAPFDVKVLKAKI
B1 was tested, and the Km (purified protein [1]) was 1560 ± 300 µM, the kcat (purified protein [1]) was 4,800 ± 320 μmol product per μmol enzyme × min^−1 and the kcat/Km (purified protein [1]) was 51300 M⁻¹ s⁻¹.

B2: Xyl31A (Ruminiclostridium cellulolyticum H10) (protein)
chain: MKFLNGYWMSKEGYSLYYPSEAYRIEKSGDVLRIFAPCNQINHRGDTLGGPALTIELSSPAEDVIRISVYHYKGVKKAGPYFELNTPGISPSISEDEDAVWFGSGQIKARIDKKTYNIDYYRGDERLTGSGWRHLAYIKHESGQTYMREQLDLDVGECVYGLGERFTPFVKNGQTVDIWNQDGGTCTEQSYKNIPFYITNRGYGVFVNDPGLVSFEICSEVVSRSQFSVEGESLDYFIIGGSDCKEVISNYTALTGRPAIPPAWSFGLWLSTSFTTNYDEKTVTSFINGMSKRRIPLSVFHFDCFWMKEFNWCDFIWDKDVFPDPKKMLSKLKEKGLHICVWINSYVSQESVLFDEGMQKGYFIHKKNGSVWQWDMWQPGMAIVDFTNPDACNWFSQKLLNLVDMGVDCFKTDFGERIPTEDVVYYDGSDPVKMHNFYTYLYNRTVFDTLKQVGKEAVVFARSATAGSQKFPVHWGGDCTADFSSMAESLRGGLSLGLCGFGFWSHDIGGFEQTATADVYKRWLAFGMLSSHSRLHGSTGYRVPWLYDEEAVDVLRFFANLKCRLMPYIYKTAIQASQQGLPSARAMFVEFPEDPACTTLDRQYMLGDSLLVAPVFSKSGLVEYYLPLGEWYNLLTGEIVTGGSYRKEKHNYMSLPLFVRPGSLLAIGDNEEETVYEYAQGVRLLLTPLADGYEASTSVYEKDGHEALNVTVNRKESDITVIAEGDGKPWSIKLCGITAKGCTGGTIEKEQDGIVFMPGNSTGSYTVRIL
notes: C-terminal His6 (pET28a); E. coli BL21(DE3)
For B2, the Km (pNP release kinetics) was 1290 ± 150 µM, the kcat (pNP release kinetics) was 12 ± 1.2 μmol product per μmol enzyme × min^−1 and the kcat/Km (pNP release kinetics) was 155 M⁻¹ s⁻¹.

B3: Glu3A (Ruminiclostridium cellulolyticum H10) (protein)
chain: MQYDQIDKKIDELLSMMTLEEKAGMCHGAGLFRTAGVPRLGIPPLVFSDGPMGIRNEFADDNWNTVGGNTDFVTYLPANTALAATFNRTLAESLGEVLGCEARGRGKDVILAPGVNIIRTPLCGRNYEYFSEDPILTAELAASFIKGVQRFDVAACVKHFAANNQETERLAVSAEVDELTLRELYFPAFEASVRAGVLTVMTAYNRLNGTFCSHSRQLITEILREEWGFNGVVVSDWGAVHDTESPAIAGLDIEMNVTSNFNEYFFAKPLINAIKDGKIPERMLDDKVRRILRLMFRLNMFSKDRKRGGFNLPQHQQAVLDAAKESFVLLKNDREVLPLNADGIKTVAVIGSNADKKHSSGGDSAAVKALYEVTPLSGIVMRLASGAKVTYYPGCPDETHYKEEFHIPSNADEKTRADIEEKARAADEDYRKIQMRLEDEAIQAAKTADAVIFIGGNGHEQESEGRDRPDMALPYEQDKLLSRVLDANPNTVVVIISGSPVNMSGWIDKAPTVMQGFFSGMHGGTALAAVLFGDENPSGHLPFTIPLKEEETGASALGEYPGGETVCYSEGLFVGYRYHDAFNIPPLFPFGYGLSYTTFSLANESFRRLPCVGTEYEIHVDITNSGNRPGAQSVQLYVEPEKKDGSPIRTLKGFEKTYLNPDETKTITFKLDERTFSEFRPHEGWVFVPGNYTIHIGTSSRELPIAIALAL
In the case of B3, the Km (purified protein [2]) is reported as 44600 ± 19000 µM, the kcat (purified protein [2]) is reported as 1,350 ± 164 μmol product per μmol enzyme × min^−1 and the kcat/Km (purified protein [2]) is reported as 500 M⁻¹ s⁻¹.
